In paper PMC4928780:

Biological target: mucins in cell-free regions of human cervicovaginal mucus (CVM) (human (endogenous in cervicovaginal mucus))
Test: FRAP (fluorescence recovery after photobleaching); labeled exogenous IgG (0.1–1.5 mg/mL final) stirred into 10 μL of fresh pH-neutralized (pH 6.8–7.1) human CVM, 1 hr at 37°C; about 10 μm x 10 μm ROIs in cell-free regions; recovery half-time against PBS (Dcvm/Dpbs); 7–9 repeats

Substance: Human intravenous immunoglobulin (IVIG), FITC-labeled (antibody)
- Dcvm/Dpbs: 0.8
